We go through 84 variants from the RNAGym collection of RNA variant scans (doi:10.1073/pnas.2313332121).

To fix the notation:
B1: TPR 5TU (parent)
chain: GGAUCUUCUCGAUCUAACAAAAAAGACAAAUCUGCCACAAAGCUUGAGAGCAUCUUCGGAUGCAGAGGCGGCAGCCUUCGGUGGCGCGAUAGCGCCAACGUUCUCAACUAUGACACGCAAAACGCGUGCUCCGUUGAAUGGAGUUUAUCAUG

Variants at the floor of the assay were thinned out.

Variants of B1 are the subject of the data set. Nature of the data set: polymerase ribozyme fitness, log enrichment relative to wild type (log ratio); higher = more active; in vitro selection for triplet polymerase activity. The method in brief:
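PCR was used to build mutant libraries for each subunit of a heterodimeric triplet polymerase ribozyme, which were then transcribed. A single in vitro selection round, in triplicate, used a frozen incubation at −7 °C and recovered extended constructs by gel excision, streptavidin beads and RT-PCR. Fitness is the logarithm of genotype enrichment relative to wild-type enrichment, averaged over replicates with inverse-variance weights. The logarithm is base 2, and after Illumina sequencing only genotypes with ≥10 input reads and ≥1 read per output were kept.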
A52U C79A A110U C116U A120U C131G: the “polymerase ribozyme fitness (log ratio)” value was at most -4.2.

For A12G C35U U55G C87G A115U, the “polymerase ribozyme fitness (log ratio)” value is -4.17. In the case of U13G G42A U56G G86U G133C G143U U146C, the “polymerase ribozyme fitness (log ratio)” value is at most -4.2.

With G68A C75A U77A C95A A97G, the “polymerase ribozyme fitness (log ratio)” value is at most -4.2.

For U31G A89G C95U, the “polymerase ribozyme fitness (log ratio)” value is -1.41. As for C8G U13A U33G G71A G74A C87G C96A C105A, the “polymerase ribozyme fitness (log ratio)” value was at most -4.2.

Take A20C A23U A28U G65U A73U G86U: the “polymerase ribozyme fitness (log ratio)” value is at most -4.2.

On to C5G A16U C43G C93G A106U A107U, for which the “polymerase ribozyme fitness (log ratio)” value was at most -4.2. On to U53G C79A C87A U102G, for which the “polymerase ribozyme fitness (log ratio)” value was at most -4.2. On to C5G A19U A37U U45A U61A C87U, for which the “polymerase ribozyme fitness (log ratio)” value is at most -4.2.

With U7G A26U U56G G59C G83A C96U A138C, the “polymerase ribozyme fitness (log ratio)” value was at most -4.2. Under C76A G86A stands -2.06.

Regarding C10G C85U, the “polymerase ribozyme fitness (log ratio)” value is -3. For the variant G83U A89G C95U C103G, the “polymerase ribozyme fitness (log ratio)” value is at most -4.2. For the variant A17G A37U C87U C99A C123U, the “polymerase ribozyme fitness (log ratio)” value was -3.98. Consider C32G G50U C79G G88U G94C U101C C125A, for which the “polymerase ribozyme fitness (log ratio)” value is at most -4.2.

Regarding A22C A24C U61G G88U, the “polymerase ribozyme fitness (log ratio)” value is at most -4.2.

As to A91U A106C C125A, the “polymerase ribozyme fitness (log ratio)” value is at most -4.2.

For the variant A12G U53A, the “polymerase ribozyme fitness (log ratio)” value is -0.69. Consider U55A U56G G80A, for which the “polymerase ribozyme fitness (log ratio)” value is -1.37.

Take A30U G58A C87U U90G U101A A110C G112A G126U: the “polymerase ribozyme fitness (log ratio)” value is at most -4.2. Consider A17U A30U U55C C116U, for which the “polymerase ribozyme fitness (log ratio)” value was -4.01. For C38A G50C C96A, the “polymerase ribozyme fitness (log ratio)” value is -4.12. Regarding G68A C72A G80C G94A, the “polymerase ribozyme fitness (log ratio)” value was at most -4.2. In the case of U31G A91U it was -4.03; in that of C32U U44A G50U U78C G83U A120G, at most -4.2. As to C27G C35G A64U A73G C79A C85G A91U, the “polymerase ribozyme fitness (log ratio)” value is at most -4.2. Under U9C C54A C87G U134A stands at most -4.2. For C38U A52G A110C, the “polymerase ribozyme fitness (log ratio)” value was at most -4.2. Regarding C54A U61A C93G C149G, the “polymerase ribozyme fitness (log ratio)” value is at most -4.2.

Regarding A16U G25C C72G C76G C96U A107U A115G C129U, the “polymerase ribozyme fitness (log ratio)” value was at most -4.2. With G42A A64G U102G, the “polymerase ribozyme fitness (log ratio)” value was at most -4.2. As to A22U C57U G70A G81C G83C G100C A106C G133C, the “polymerase ribozyme fitness (log ratio)” value was at most -4.2.

Regarding G46A A97U U109G A121G U135C, the “polymerase ribozyme fitness (log ratio)” value is at most -4.2. With A37C A49C G81A G92C A106G C108A A115U A137U G143U, the “polymerase ribozyme fitness (log ratio)” value is at most -4.2. Regarding U15A G59A A60U C79U C87A, the “polymerase ribozyme fitness (log ratio)” value was at most -4.2.

On to U53A G83A, for which the “polymerase ribozyme fitness (log ratio)” value was -1.64. Turning to U44A G81A A137G, the “polymerase ribozyme fitness (log ratio)” value was at most -4.2. In the case of A17U G50A C87G G141A it was at most -4.2; in that of A47U C95U, -0.679; in that of A49G U53C C114U, -2.54. As to C35U U56G U134A, the “polymerase ribozyme fitness (log ratio)” value was -2.9. For the variant G86A C123A U148G, the “polymerase ribozyme fitness (log ratio)” value was -4.02. For the variant U102G U127C, the “polymerase ribozyme fitness (log ratio)” value was -4.17. A12C A21G C36A G48A C93A U135G: the “polymerase ribozyme fitness (log ratio)” value was at most -4.2. Under A20C C32G G59C C85U C95G A97G G140A U151C stands at most -4.2; under A22C C57U A60U C69G, -1.7; under A24C A40U G94A C116A, at most -4.2. Under A30U G50C stands at most -4.2; under A29C C36G U78C C93G A97G, at most -4.2; under C57U G86A A98U, -1.55. Regarding U9C G84A C103U, the “polymerase ribozyme fitness (log ratio)” value is at most -4.2.

As for A66G G92C C105U, the “polymerase ribozyme fitness (log ratio)” value was -4.03.

As for U4A C10U A26U U31G A39G C57A C85A U90G A113C, the “polymerase ribozyme fitness (log ratio)” value is at most -4.2. Turning to U15A A17U C57G G88U A91C U111C C129A U134G U148C, the “polymerase ribozyme fitness (log ratio)” value is at most -4.2.

Turning to A91U U104A G141A U148A, the “polymerase ribozyme fitness (log ratio)” value was at most -4.2.

Regarding C5A U9C G42A A52G A66C G74A U82A A89U C123A C129A G133U, the “polymerase ribozyme fitness (log ratio)” value was at most -4.2. As for A12G C36A C69U C85G A89C A113U, the “polymerase ribozyme fitness (log ratio)” value was at most -4.2. For the variant C85G G133C, the “polymerase ribozyme fitness (log ratio)” value is -2.86.

For A24U G42A G88A G92A A115C, the “polymerase ribozyme fitness (log ratio)” value was at most -4.2. Regarding C87U U127A, the “polymerase ribozyme fitness (log ratio)” value was -3.2. With C10U U77G C87A A91C C108U G133A, the “polymerase ribozyme fitness (log ratio)” value was at most -4.2. For G34A C85A A91C C103G, the “polymerase ribozyme fitness (log ratio)” value is at most -4.2.

With C51U G58U U82G C96U, the “polymerase ribozyme fitness (log ratio)” value was -0.59. As to G58A C87G A142C, the “polymerase ribozyme fitness (log ratio)” value was at most -4.2. Take G34A C85A G133A: the “polymerase ribozyme fitness (log ratio)” value was at most -4.2. Under C8A A22U A41C C93A G136C stands at most -4.2; under A73G G94A U148C, -3.66; under A20C A52U G68C G84A U134C, at most -4.2.

As for G48A G86C C123A C125G, the “polymerase ribozyme fitness (log ratio)” value was -3.94. Take C43A G50A A106G: the “polymerase ribozyme fitness (log ratio)” value is at most -4.2.

Regarding C38U A47U A121U U135A A142U, the “polymerase ribozyme fitness (log ratio)” value was -2.42. On to U56C G58U C114U A119U, for which the “polymerase ribozyme fitness (log ratio)” value was -1.67. Consider A12C U90G, for which the “polymerase ribozyme fitness (log ratio)” value is at most -4.2. In the case of G58C G68A it was -3.97.

Take C8A A17U U55A G81C C87A A91U U144C U145C: the “polymerase ribozyme fitness (log ratio)” value is at most -4.2. On to A26U C36A G58C A89G G94U A138G, for which the “polymerase ribozyme fitness (log ratio)” value was at most -4.2. Under C14G C35U G42C A52U C75A C79G G92C C118U G140C stands -4.09.

A60G C85A: the “polymerase ribozyme fitness (log ratio)” value is -0.96.

As for U13G C93G, the “polymerase ribozyme fitness (log ratio)” value is -3.88.

On to G42A U56A C95U U111G, for which the “polymerase ribozyme fitness (log ratio)” value is -4. In the case of A29U U44G A49C C103G G141C, the “polymerase ribozyme fitness (log ratio)” value was at most -4.2. Consider A107G G143U, for which the “polymerase ribozyme fitness (log ratio)” value is -3.81. Take G59U C69U G86A C95G A107U: the “polymerase ribozyme fitness (log ratio)” value was at most -4.2.
